The values that follow are results of earlier work, collected in publication PMC4456024.

The target in this data set is cTnI147-163 (Homo sapiens). Put plainly: NMR titration.

cTnC (cNTnC) 1-89 (from UniProt P63316): the Kd is 150 µM.
